{"source": "the nanobody polyreactivity screen of Harvey et al. (2022)", "data": [{"experiment": "yeast display, Sf9 membrane polyspecificity reagent, FACS + sequencing; frameworks hold sequencing errors", "summary_of_the_method": "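Polyreactivity labels are assigned by the sorting gate from which each nanobody was recovered. The gates were low and high (top ~1%), set on anti-HA fluorescence for expression and streptavidin fluorescence for reagent binding. Before sorting, galactose-induced (36–48 hours) yeast display cells were stained for 1 hour at 4 °C with 10% biotinylated, detergent-solubilized Sf9 membrane reagent.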", "values": [{"sequence": "KVQLVESGGGLVHAGGSLRLSCAASGRTLYTNAMGWYRQAPGTERELVAAITSGASTNYADSVKGRFTISRDNAKNTVYLQMNSLKPEDTAVYYCAARTDHLWNARRYDYWGQGTQVTVSS", "polyreactivity (PSR sort gate)": "low polyreactivity"}, {"sequence": "KVQLVESGGGLVQAGGSIRLSCDASGRSFYYYAMGWYRQAPGKEREWVAAINTRGTSTYYADSVKGRFTISRDNAKNTVYLQMNSLKPEDTAVYYCAVDPYGDSWEDWFRNYYYGYDYWGQGTQGTVSS", "polyreactivity (PSR sort gate)": "low polyreactivity"}, {"sequence": "KVQLVESGGGLVQAGGSLRLSCAASGIFLDRNAMGWYRQAPGKERELVAAINSIGGSTYYADSVKGRFTISRDNAKNTVYLQMNSLKPEDTAVFYCAAPSTSSYYWGQGTQVTVSS", "polyreactivity (PSR sort gate)": "low polyreactivity"}, {"sequence": "KVQLVESGGGLVQAGGSLRLSCAASGNTFYHYAMGWYRQAPGKERELVAGIRYNGGSTYYADSVKGRFTISRDNAKNTVYLHMKSLKPEDTAVYYCATKGYTGYAYRYGYWGQGTQVTVSS", "polyreactivity (PSR sort gate)": "high polyreactivity"}, {"sequence": "KVQLVESGGGLVQAGGSLRLSCAASGSIFDLYTMGWYRQAPGKERELVATISSGGSTNYADSVKGRFTISRDNAKNTVNLQMNSLKPEDTAVYYCAAGSTHYDIHFDYWGQGTQVTVSS", "polyreactivity (PSR sort gate)": "low polyreactivity"}, {"sequence": "KVQLVESGGGLVQAGGSLRLSCAASGSIFTFNAMGWYRQAPGKERELVAAIRWSSGRTYYADSVKGRFTISRDNAKNTVYLQMNSLKPEDTAVYFCAAKDFGSFYESGYDYWGQGTQVTVSS", "polyreactivity (PSR sort gate)": "high polyreactivity"}, {"sequence": "KVQLVESGGGLVQAGGSLRLSCAASGSNFVYNAMGWYRQAPGKEREFVAAISGSGGSTYYADSVKGRFTISRDNAKNTVYLQMNSLKPEDTAVYYCATAGRYGRYRTYPYRSKYDYWGQGTQVTVSS", "polyreactivity (PSR sort gate)": "high polyreactivity"}, {"sequence": "KVQLVESGGGLVQAGGSLRLSCAPSGRTFRSNGMGWYIQAPGKERELVATISEGGGSTYYADSVKGRFTISRDNAKNTVYLEMISLKPEDSAVYFCAADKWYVLHYLDMNYWGQGTQVTVSS", "polyreactivity (PSR sort gate)": "high polyreactivity"}, {"sequence": "KVQLVESGGVLVQAGGSLRLICAASGRTFYGYAMGWSRQAPGKERELVAGITSGGSTTYADSVKGRFTISRDHAKKTVYLQMNSLKPEDTAVYYCAKKWYRTTRAYVFRSYDYWGQGTQVTVSS", "polyreactivity (PSR sort gate)": "high polyreactivity"}, {"sequence": "KVQLVESGLGLVQAGGSLRISCAASGSIFTQYTMGWYRQAHGKERELVASISDSGGSTYYADSVKGRFTISRDNAKNTVYLQMNSLKPEDTSVYYCASRHDRPRESNPYDYWGQGTQVTVSS", "polyreactivity (PSR sort gate)": "low polyreactivity"}, {"sequence": "KVQRVDSGGGLVQAGGSLRLSCAASGSILGPYAMGWYRQAPGKERELVAGISGSGTRTYYADSVKGRFTISRDNAKNTVYLQMNSLKPEDTAVYYCAARYYSSWFRYPSYDYWGQGTQVTVSS", "polyreactivity (PSR sort gate)": "high polyreactivity"}, {"sequence": "KVQVVESGGGLVQAGGSLRLSCAASGRIFGVYAMGWYRQAPGKERELVAAINYSGTRTYYADSVKGRFTISRDNAKNTVYLQMNSLKPEDSAVYYCAARRGSYSVTEYWGQGTQVTVSS", "polyreactivity (PSR sort gate)": "high polyreactivity"}, {"sequence": "LVQHVQSGGGLVQAGGSLRVSCAASGPTLDSNAMGWYRQAPGKERELVAAISSAGSTNYPDSVKGRFTISRDNAKNTVYLQMNSLKPEDTAVYYSAADLIGSHDYWGQGTQVTVSS", "polyreactivity (PSR sort gate)": "low polyreactivity"}, {"sequence": "LVQLQERVGVLVQAGGRLRLNCAASGTISPGGYMGWYRQAPGKELELVASINVGGSTNYADSVKGRFTISRDNAKNTVYLQMNRLKPEDNAVYYCAVWGRNRLQLSYWGQGTQVTVSS", "polyreactivity (PSR sort gate)": "low polyreactivity"}, {"sequence": "LVQLQESGGGLVQAGGSLRLSCAASGTISPGGYMGWYRQAPGQERELVASINVGGSTNYADSVKGRFTISRDNAKNPVDLQMNSLKPEDNAVYYCAVWGRNRLQLSYWGQGTQVTVSS", "polyreactivity (PSR sort gate)": "low polyreactivity"}, {"sequence": "LVQLVESGGGLVQAGGSLRLSCAASGFIFFGEYVMGWYRQAPGKEREFVAAITDSDGSTYYADSVKGSFTISRDNGKNTVYLQMISLKPEDTAVYYCAAERVYSDMDYWGQGTQVTVSS", "polyreactivity (PSR sort gate)": "low polyreactivity"}, {"sequence": "LVQLVESGGGLVQAGGSLRLSCAASGFISPSYALGWYRQAPGKERELVAAIRSSDGSTYYADSVKGRFTISRDNAKNTAYVQMNSRKPEDTAVYYCAAGGSSYRDDYWGQGSQVTVSS", "polyreactivity (PSR sort gate)": "low polyreactivity"}, {"sequence": "LVQLVESGGGLVQAGGSLRLSCAASGSICNANAMGWYRQAPGKERELVAGIRSGSSTNYADSVKGRVTISRDNAKNTVYLQMNSLKPEDTPVYYCATEGYWVYGFDDEYWGQGTQVTVSS", "polyreactivity (PSR sort gate)": "low polyreactivity"}, {"sequence": "LVQLVESGGGLVQAGGSLRLSCAASGSTFDGYAMGWYRQAPGKERELVAAIAYSGSSTYYADSVTGRFTISRDNSKNTVYIQMNSQKQEDTAVYYCAVDDTHPFGPDGGGDYWGQGTQVTVSS", "polyreactivity (PSR sort gate)": "low polyreactivity"}, {"sequence": "NVQLVESGGGLVQAGGSLRLSCAASGRTFPTYAMGWYRQAPGKERELVAAISSSGGSTYYADSVKGRFTISRDNAKNTVYLQMNSLKPEDTAVYYCAALRARNLNPGYDYWGQGTQVTVSS", "polyreactivity (PSR sort gate)": "low polyreactivity"}, {"sequence": "PLQLVESGGGLVQAGGSLRLSCAATGFIFAVNAMGWYRQAPGKERELVAAISSSGTTNYADSVKGRFTISRDNAKNTVYLQMNSLKPEDTAVYYCAADYHGSPEYDYWGQGTQVTVSS", "polyreactivity (PSR sort gate)": "low polyreactivity"}, {"sequence": "PVKLVESGGGLVQAGGSLRLSCAASGFTFFRNAMGWYRQAPGKERELVAAISGSGGRTYDADSVKGRFTISRDNAKNPVYLQLNSLKLEDTAVYYCAAVPVDPGYDYWGQGTQVTVSS", "polyreactivity (PSR sort gate)": "high polyreactivity"}, {"sequence": "PVQLQESGGGLVQAGGSLRLSCAASGNIFDADIMGWYRQAPGKERELVACIADGGSTNYADSVKGRFTISRDNAKNTVYLQMNSLKPEDTAVYYCAAIAYPDIPTCFDYDSDYFIRGQGTQVTVSS", "polyreactivity (PSR sort gate)": "low polyreactivity"}, {"sequence": "PVQLVEAGGGLVQAGGSLRLSCAASGFTIRIYTMGWYRQAPGKERELVAAISSRGGSTYYADSVKGRFTISRDNAKITVYLQMNSLKPEDTAVYYCAKTPYYRYAKQRYTSSHDYWGQGTQVTVSS", "polyreactivity (PSR sort gate)": "high polyreactivity"}, {"sequence": "PVQLVESGGGLVQAGGSLRISCAASGRSFYVYAMGWYRQAPGKEREFVARITSNGGSPTYADSVKGRFTISRDKAKNTVYLQMNSLKPEDTAVYYCNADDGIHPNASPSFPQYDYWGPGTQVTVSS", "polyreactivity (PSR sort gate)": "low polyreactivity"}, {"sequence": "PVQLVESGGGLVQAGGSLRLSCAAAGLTFPPNAMGWYRQAPGKERELVADSGGSTNYADSVKGRFTISRDNAKNTVYLQMNSLNPEDTAVYYCAVPPYSDGQWDDYWGQGTQVTVSS", "polyreactivity (PSR sort gate)": "low polyreactivity"}, {"sequence": "PVQLVESGGGLVQAGGSLRLSCAASGFIFRRNAMGWYRQAPGKERELVASIRSGGSTKYADSVKGRFTISRDNAKNTVYLQMTSLKPEDTAVYYCNAEDPGYAVRWYWFKYDYWGQGTQVSVSS", "polyreactivity (PSR sort gate)": "low polyreactivity"}, {"sequence": "PVQLVESGGGLVQAGGSLRLSCAASGNAMGWYRQAPGKERELVASINRSGGRTYYADSVKGRFTISRDNAKNTVYLQMNSLKPEDTAVYYCAARPHYDSDYWGQGTQVTVSS", "polyreactivity (PSR sort gate)": "low polyreactivity"}, {"sequence": "PVQLVESGGGLVQAGGSLRLSCAASGRIFKPYAMGWYRQAPGKERELVAAISGSGTRTYYADSVKGRFTISRANAKNTVYLQMNSLKPEDTAVYFCAAAYYSTYRNRMDYWGQGTQVTVSS", "polyreactivity (PSR sort gate)": "high polyreactivity"}, {"sequence": "PVQLVESGGGLVQAGGSLRLSCAASGRILPSNAMGWYRQAPGKERELVAGITSGGSTDYADSVKGRFTISRDNAKNTVYLQMNSLNPVDTAVYYCAARYFHHYWGDLEVEFEYWGQGTQVTVSS", "polyreactivity (PSR sort gate)": "low polyreactivity"}, {"sequence": "PVQLVESGGGLVQAGGSLRLSCAASGSIFPSYAMGWYRQAPGKERELVATIGRGGTTNYADSVKGRFTISRDNAKNTVYLQKNSLKPEDTGVYYCNAERIWRYKYGYDYWGQGTQVTVSS", "polyreactivity (PSR sort gate)": "high polyreactivity"}, {"sequence": "PVQLVESGGGLVQAGGSLRLSCAASGSIFVTYAMGWYRQAPGKERELVATITYSGGSTSYADSVKGRFTISRDNAKNTVYLQMNSLKPEDTAVYYCAADLDSDFDYWGQGTQVTVSS", "polyreactivity (PSR sort gate)": "low polyreactivity"}, {"sequence": "PVQLVESGGGLVQAGGSLRLSCADSGSIFRKYARGWYRQAPGKERELVAAITYGGSSTYYADSVKGRFTISRDNAKKTVYLQRNSLKPQDTAVYYFINDRPSYPAYGHTQYVVQMDYWGQGTQVTVSS", "polyreactivity (PSR sort gate)": "low polyreactivity"}, {"sequence": "PVQLVESGGGLVQAGGSLRLTCAASGRIFTGYAMGWYRQAPGKERELVAAISRGGSTNYADSVKGRFTISRDNEKNTVYLLMNSLKPEDTAFYYCAAGFDWDRGDYWGQGTQVTVSS", "polyreactivity (PSR sort gate)": "low polyreactivity"}, {"sequence": "PVQLVESGVCLVQAGGSLRLSCATPGSTIDFYAMGWYRQAPGKERELVARISSGGGRTYYADSVKGRFTISRDNAKNTVYLQMISLKPEDTAVYYCAAAYWYLDYYWGQGTQVTVSS", "polyreactivity (PSR sort gate)": "low polyreactivity"}, {"sequence": "PVQLVVSGGGLVQAGGSLRLRGAASGSSFSQNAMGWSRPAPGKDRELVAAITSGGITYYADSVKGRFTISRDNAKNTVYLQMNSLKPEDTAVYDCAADYWPSGRGVAFDYWGQGTQVTVSS", "polyreactivity (PSR sort gate)": "low polyreactivity"}, {"sequence": "PVQRVESGGGLVQAGGSLRLSCAASGRTFDSYAMGWYRQAPGKERELVAAISSRGTRTYYADSVKGRFTSSRDNAKNPVYLQINSLQPEDTAGYYCNAGGAYEYDYWGQGSQVTVSS", "polyreactivity (PSR sort gate)": "high polyreactivity"}, {"sequence": "QAQLQESAGSLVQAGGGLRLSCAASGYISVGSVKGWYRQAPSKERELVASIDQGANTNYADSVKGRFTISRDNAKNNVYLQMNSLIPEDTAVYYCATETTYILNYWGQGTQVTVSS", "polyreactivity (PSR sort gate)": "low polyreactivity"}, {"sequence": "QAQLQESGGGLVQAGGSLPRSCAPSGSIFRFSGMGWYRRAPGKERELVASIGFGSITYYEDRVKGRFTISRDNANNTVYLQMNSLKPEDTAVYYCAVQVQDDSWLDYWGQGTQVTVSC", "polyreactivity (PSR sort gate)": "low polyreactivity"}, {"sequence": "QAQLQESRGSVVQAGLGLRLSCAASGYISVGSVMGWYRQAPSKERELVASIDQGANTNYADSVKGRFTISRDNAKNNVYLQMISLKPEDTEVYYCATETTYILNYWGQGSQVTVSS", "polyreactivity (PSR sort gate)": "low polyreactivity"}, {"sequence": "QAQLVESGGGLVQAGGSLRLSCAASGSIFVAYDKGWYREAPWKERELVAAINFDGTSTYYADSVKGRFTISRDNAKNTVYLQMNSLKPEDTAVYYCNKRVSPTFTGQYDYWGQGTQVTVSS", "polyreactivity (PSR sort gate)": "low polyreactivity"}, {"sequence": "QCQLVESGGGLVQAGGSLLLSCAASGFIFNRNAMGWSRQAPGKEREFVSAISTLGAGTYYADSVKGRFTISRDNAKNTVYLQMNSLKPEDTAVYYCAADIFRYGYYNRYSKVGYDYWGQGTQVTVSS", "polyreactivity (PSR sort gate)": "high polyreactivity"}, {"sequence": "QDHLVESGGGLVQAGGSLRLSCAASGFLFSQNVMGWYRQAPGKERELVAAISSGSRTYYADSVKGRFTISRDNAKNTVYLQMISLKPEDTAVYYCATDARVGGYVSEGDYWGLGTQVTVSS", "polyreactivity (PSR sort gate)": "low polyreactivity"}]}]}
